47 molecules from patent publication US8563513 (VAN ANDEL RESEARCH INSTITUTE, dated 2013) can be followed below.

Where no end group is shown, it is not given here.

In experiment [1] the target is T1, MBP-PTH1R ECD-(His)6 fusion protein (UniProt Q03431 29-187).
T1 construct: range 29-187; Expressed in E. coli, disulfide shuffled in vitro; also called MBP-PTH1R ECD-H6; MBP-PTH1R ECD fusion protein
T1 sequence: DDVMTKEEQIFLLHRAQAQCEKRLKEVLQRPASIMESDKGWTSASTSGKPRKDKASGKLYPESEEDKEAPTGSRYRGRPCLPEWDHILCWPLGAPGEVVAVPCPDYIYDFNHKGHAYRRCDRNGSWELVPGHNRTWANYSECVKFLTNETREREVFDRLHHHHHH
The experiment is described as follows: AlphaScreen single point competition; peptide 20 µM against biotin-PTH(7-34)NH2 (23 nM) on MBP-PTH1R-ECD (23 nM) [panel I]. The method, then:
(§1) ECD-peptide binding assays. The binding of peptides to the MBP-PTH1R ECD-H6 fusion protein was assessed using an AlphaScreen assay (Perkin-Elmer). […] The pre-coupling reactions were mixed, un-labeled competitor peptides were added as indicated, and the reactions were incubated 4 to 5 hrs to reach equilibrium. Photon counts were recorded in 384-well optiplates using an Envision 2104 plate reader (Perkin-Elmer). Prism 5.0 software (GraphPad Software, San Diego) was used to fit the data to a fixed-slope dose-response inhibition equation for determination of IC50 values. Real-time analysis of the binding of peptides to the isolated PTH1R ECD using the Octet Red system (ForteBio) was performed as described in below.
(Bead proximity is the source of the signal in Alpha formats.)

Experiment [2] concerns the target T1, MBP-PTH1R ECD-(His)6 fusion protein. Kind of experiment: AlphaScreen single point competition; peptide 20 µM against biotin-PTH(7-34)NH2 (23 nM) on MBP-PTH1R-ECD (23 nM) [panel B]. The method, then:
as §1

Experiment [3] addresses T2, PTH1R in cell membranes, G protein-coupled conformation (RG) (UniProt Q03431 27-593).
T2 construct: whole, on cells; Cell membranes, not intact cells; RG state studied by co-expressing the receptor with dominant negative Gαs; also called G protein-coupled receptor
Kind of experiment: competition binding, PTH1R in cell membranes, RG state (dominant negative Gαs), n = 3.

Experiment [4] addresses T1, MBP-PTH1R ECD-(His)6 fusion protein. The experiment is described as follows: AlphaScreen single point competition; peptide 20 µM against biotin-PTH(7-34)NH2 (23 nM) on MBP-PTH1R-ECD (23 nM) [panel H]. The method, then: as §1
For experiment [5] the target is unchanged. The experiment is described as follows: AlphaScreen single point competition; peptide 20 µM against biotin-PTH(7-34)NH2 (23 nM) on MBP-PTH1R-ECD (23 nM) [panel A]. As for the experimental part:
as §1

T2 sequence (Q03431 27-593): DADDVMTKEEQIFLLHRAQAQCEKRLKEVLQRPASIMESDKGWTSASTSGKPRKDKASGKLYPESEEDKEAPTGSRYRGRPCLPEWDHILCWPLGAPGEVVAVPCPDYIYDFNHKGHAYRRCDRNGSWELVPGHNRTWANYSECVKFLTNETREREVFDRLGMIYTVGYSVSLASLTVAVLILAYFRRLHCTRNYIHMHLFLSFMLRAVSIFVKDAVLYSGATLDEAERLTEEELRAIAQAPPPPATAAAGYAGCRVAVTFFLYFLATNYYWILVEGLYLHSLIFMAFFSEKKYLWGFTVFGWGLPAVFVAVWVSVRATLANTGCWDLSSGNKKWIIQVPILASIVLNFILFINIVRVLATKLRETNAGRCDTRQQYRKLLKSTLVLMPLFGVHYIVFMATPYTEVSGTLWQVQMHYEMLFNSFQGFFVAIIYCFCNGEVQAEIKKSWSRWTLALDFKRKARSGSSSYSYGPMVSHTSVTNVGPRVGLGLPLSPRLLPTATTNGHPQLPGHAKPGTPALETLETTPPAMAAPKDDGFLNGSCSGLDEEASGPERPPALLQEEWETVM

Take GKSIQDLRRRFALHHLIAEIHTA-NH2 (also called PTHrP(12-34)NH2 [F23A]) [F23A]: in experiment [1], the binding result is given as “binds”.

B1: PTHrP(12-34)NH2 [F23′W/L27′K] (peptide)
peptide: GKSIQDLRRRFWLHHKIAEIHTA-NH2
notes: Hybrid PTH/PTHrP peptide in the PTHrP(12-34)NH2 scaffold
With B1, in experiment [2], the binding result is given as “binds”.

B2: PTHrP(12-34)NH2 [L27′K] (peptide)
peptide: GKSIQDLRRRFFLHHKIAEIHTA-NH2
notes: as for B1
For the molecule B2, the binding result in experiment [2] is reported as “binds”. For the molecule GKSIQDLRRRFFLHHLLAEVHTA-NH2 (also called PTHrP(12-34)NH2 [I28L/I31V]) [I28L/I31V], the binding result in experiment [2] is given as “binds”. Turning to GKSIQDLRRRFFAHHLIAEIHTA-NH2 (also called PTHrP(12-34)NH2 [L24A]), the binding result in experiment [1] is reported as “binds”. With GKSIQDLRARFFLHHLIAEIHTA-NH2 (also called PTHrP(12-34)NH2 [R20A]), the binding result in experiment [1] is recorded as “no binding (tested: 20 µM)”.

B3: PTHrP(12-34)NH2 [F23′W] (peptide)
peptide: GKSIQDLRRRFWLHHLIAEIHTA-NH2
notes: as for B1
For B3, the binding result in experiment [2] is reported as “binds”. For GKSIADLRRRFFLHHLIAEIHTA-NH2 (also called PTHrP(12-34)NH2 [Q16A]) [Q16A], the binding result in experiment [1] is listed as “binds”. Still for that read-out and setting: as for GKSIQDLRRRFFLHHLIAEIHAA-NH2 (also called PTHrP(12-34)NH2 [T33A]) [T33A], the entry is “binds”; as for GKSIQDLRRAFFLHHLIAEIHTA-NH2 (also called PTHrP(12-34)NH2 [R21A]) [R21A], “binds”. On to GKSIQDLRRRFWLHHLIAEVHTA-NH2 (also called PTHrP(12-34)NH2 [F23W/I31V]) [F23W/I31V], for which the binding result in experiment [2] is given as “binds”.

B4: PTHrP(12-34)NH2 [I31′V] (peptide)
peptide: GKSIQDLRRRFFLHHLIAEVHTA-NH2
notes: as for B1
Take B4: the binding result in experiment [2] is given as “binds”.

B5: PTHrP(12-34)NH2 [L27′K/I28′L] (peptide)
peptide: GKSIQDLRRRFFLHHKLAEIHTA-NH2
notes: as for B1
In the case of B5, the binding result in experiment [2] is reported as “binds”.

B6: PTHrP(12-34)NH2 [F23′W/L27′K/I28′L/I31′V] (peptide)
peptide: GKSIQDLRRRFWLHHKLAEVHTA-NH2
notes: Quadruple swap peptide in the PTHrP(12-34)NH2 scaffold; also called quadruply mutant PTHrP peptide
Regarding B6, the binding result in experiment [2] is listed as “binds”. GKSIQDLRRRFFLHHLIAEIATA-NH2 (also called PTHrP(12-34)NH2 [H32A]): the binding result in experiment [1] is listed as “binds”.

B7: PTHrP(12-34)NH2 [I28′L] (peptide)
peptide: GKSIQDLRRRFFLHHLLAEIHTA-NH2
notes: as for B1
Turning to B7, the binding result in experiment [2] is recorded as “binds”. Take GKSIQDLRRRFFLHHLIAEAHTA-NH2 (also called PTHrP(12-34)NH2 [I31A]) [I31A]: in experiment [1], the binding result is on record as “binds”.

As for GKSIQDLRRRFWLHHLLAEIHTA-NH2 (also called PTHrP(12-34)NH2 [F23W/I28L]) [F23W/I28L], the binding result in experiment [2] is “binds”. Turning to GKSIQDLRRRFFLHHLAAEIHTA-NH2 (also called PTHrP(12-34)NH2 [I28A]) [I28A], the binding result in experiment [1] was “binds”.

B8: PTHrP(12-34)NH2 [L27′K/I31′V] (peptide)
peptide: GKSIQDLRRRFFLHHKIAEVHTA-NH2
notes: as for B1
Turning to B8, the binding result in experiment [2] was “binds”.

With GKSIQDLRRRFFLHHAIAEIHTA-NH2 (also called PTHrP(12-34)NH2 [L27A]) [L27A], the binding result in experiment [1] is “binds”. On the same count and under the same terms, next, GKSIQDLARRFFLHHLIAEIHTA-NH2 (also called PTHrP(12-34)NH2 [R19A]) [R19A]: “binds”. As to SVSEIQLMHNLGKHLNSMERVEWLRKLIQDVHNF-NH2 [PTH(1-34)NH2 [K27L/L28I]], in experiment [3], the half-inhibitory concentration (IC50) was 380 pM and the “IC50 Log M” value is -9.5 Log M.

B9: PTH(15-34)NH2 (peptide)
peptide: LNSMERVEWLRKKLQDVHNF-NH2
notes: also called C-terminally amidated 15-34 fragment of PTH
Turning to B9, the binding result in experiment [4] is “binds”.

B10: PTH(15-34)NH2 [W23′F] (peptide)
peptide: LNSMERVEFLRKKLQDVHNF-NH2
notes: Hybrid PTH/PTHrP peptide in the PTH(15-34)NH2 scaffold
B10: the binding result in experiment [5] is listed as “binds”. For the molecule LNSMERVEWLRKKIQDIHNF-NH2 (also called PTH(15-34)NH2 [L28I/V31I]) [L28I/V31I], the binding result in experiment [5] was “binds”. Regarding LNSMERVEWLRKKLQDVHNA-NH2 (also called PTH(15-34)NH2 [F34A]) [F34A], the binding result in experiment [4] is reported as “binds”.

B11: PTH(15-34)NH2 [K27′L/V31′I] (peptide)
peptide: LNSMERVEWLRKLLQDIHNF-NH2
notes: as for B10
Consider B11, for which the binding result in experiment [5] is reported as “binds”.

B12: PTH(15-34)NH2 [K27′L/L28′I] (peptide)
peptide: LNSMERVEWLRKLIQDVHNF-NH2
notes: as for B10
As to B12, the binding result in experiment [5] is “binds”.

B13: PTH(15-34)NH2 [K27′L] (peptide)
peptide: LNSMERVEWLRKLLQDVHNF-NH2
notes: as for B10
Regarding B13, the binding result in experiment [5] is on record as “binds”.

Take LNSMERVEWLRKKLQDVANF-NH2 (also called PTH(15-34)NH2 [H32A]): the binding result in experiment [4] is recorded as “binds”.

B14: PTH(15-34)NH2 [W23′F/K27′L] (peptide)
peptide: LNSMERVEFLRKLLQDVHNF-NH2
notes: as for B10
Regarding B14, the binding result in experiment [5] was “binds”. LNSMERVEFLRKKIQDVHNF-NH2 (also called PTH(15-34)NH2 [W23F/L28I]) [W23F/L28I]: in experiment [5], the binding result is “binds”. As to LNSMERVEALRKKLQDVHNF-NH2 (also called PTH(15-34)NH2 [W23A]) [W23A], the binding result in experiment [4] was “no binding (tested: 20 µM)”. Turning to LNSMERVEWLRKKLADVHNF-NH2 (also called PTH(15-34)NH2 [Q29A]) [Q29A], the binding result in experiment [4] was “binds”.

B15: PTH(15-34)NH2 [L28′I] (peptide)
peptide: LNSMERVEWLRKKIQDVHNF-NH2
notes: as for B10
With B15, in experiment [5], the binding result is recorded as “binds”. Consider LNSMEAVEWLRKKLQDVHNF-NH2 (also called PTH(15-34)NH2 [R20A]), for which the binding result in experiment [4] was “binds”. As for LNSMERAEWLRKKLQDVHNF-NH2 (also called PTH(15-34)NH2 [V21A]) [V21A], the binding result in experiment [4] is recorded as “binds”. Turning to LNSMERVEWLRKALQDVHNF-NH2 (also called PTH(15-34)NH2 [K27A]) [K27A], the binding result in experiment [4] is on record as “binds”. Same read-out and setting: next, LNSMERVEWLRKKAQDVHNF-NH2 (also called PTH(15-34)NH2 [L28A]) [L28A]: “no binding (tested: 20 µM)”; LNSMERVEWLRKKLQDAHNF-NH2 (also called PTH(15-34)NH2 [V31A]) [V31A]: “binds”. Same read-out and setting: as for LNSMERVEWARKKLQDVHNF-NH2 (also called PTH(15-34)NH2 [L24A]), the entry is “no binding (tested: 20 µM)”.

In the case of LNSMERVEFLRKKLQDIHNF-NH2 (also called PTH(15-34)NH2 [W23F/V31I]) [W23F/V31I], the binding result in experiment [5] is “binds”.

With LNSMERVEWLRAKLQDVHNF-NH2 (also called PTH(15-34)NH2 [K26A]) [K26A], in experiment [4], the binding result was “binds”. On the same count and under the same terms, as for LNSMARVEWLRKKLQDVHNF-NH2 (also called PTH(15-34)NH2 [E19A]) [E19A], the entry is “binds”.

B16: PTH(15-34)NH2 [V31′I] (peptide)
peptide: LNSMERVEWLRKKLQDIHNF-NH2
notes: as for B10
As for B16, the binding result in experiment [5] is on record as “binds”.

B17: PTH(15-34)NH2 [W23′F/K27′L/L28′I/V31′I] (peptide)
peptide: LNSMERVEFLRKLIQDIHNF-NH2
notes: Quadruple swap peptide in the PTH(15-34)NH2 scaffold; also called W23′F/K27′L/L28′I/V31′I peptide
As to B17, the binding result in experiment [5] was “binds”.

One may read the IC50 as the concentration that inhibits the measured activity by half. Low values mean higher potency, high ones lower potency.
